Measurements published in patent publication US20250327097A1, “ORGANISMS PRODUCING LESS CROTONIC ACID” (Global Bioenergies, priority 2021, published 2025).
Changes are numbered by the printed parent chain. Numbers in names are those of the source.

B1: E224P-I283T-N285P-N287T-Q290E-S322T-N388M-S389H-K394R-C430A-i430aG-L432F-L434W-S436N-I453L-dG462 (protein)
chain: MFLKSLREQINLLKRQGDLRIINRPVDSYLEAAAIIRRSTETKAPVPLMTNIKGYPGCSIVGGLAALSSNPEYPLSRVAMSLGLSTTASAQSIVQYLIDGLKKTPYLPVEIDSNSAPCKQNILRGEDASLAHFPIPQVHQHDGNRYVNTWGVFIVESPDGQWCNWSIQRVQYLNDRQMIALVFPSQHISDIWEEWVKIGKPMPYALVQGCEPIVPYIAGLPLLPRNVNEAEYIGALYGKGIEVVKCETHDLRVPASSEVVIEGYFAITREGVEGPFGEFAGYTPPETSLEPILSITAISWQDDPIWPVVAEGKPVDEYHTCTGIGDAAAIQNVLLTANLPVSFVWVPLYSACHLMIVSINRHWRQTHPDLTSEQLTKKVGDVIHQTRMHIKLPRIVVLDDDVDPADTESLLWALATRIHPERKRYFYESAIFPWLNCYSEEERHNRKGKRVILDALLPENHGAISSFDYAYPDDIKQRVLMHWETDFSHD
B2: G380V-K391L-L432W-L434M (protein)
chain: MFLKSLREQINLLKRQGDLRIINRPVDSYLEAAAIIRRSTETKAPVPLMTNIKGYPGCSIVGGLAALSSNPEYPLSRVAMSLGLSTTASAQSIVQYLIDGLKKTPYLPVEIDSNSAPCKQNILRGEDASLAHFPIPQVHQHDGNRYVNTWGVFIVESPDGQWCNWSIQRVQYLNDRQMIALVFPSQHISDIWEEWVKIGKPMPYALVQGCEPIVPYIAGLPLLERNVNEAEYIGALYGKGIEVVKCETHDLRVPASSEVVIEGYFAITREGVEGPFGEFAGYIPNENSLQPILSITAISWQDDPIWPVVAEGKPVDEYHTCSGIGDAAAIQNVLLTANLPVSFVWVPLYSACHLMIVSINRHWRQTHPDLTSEQLTKKVVDVIHQTRNSILLPKIVVLDDDVDPADTESLLWALATRIHPERKRYFYESCIWPMLSCYSEEERHNRKGKRVIIDALLPENHGAISSFDYAYPDDIKQRVLMHWETDFSHD
B3: V272I-I283T-P284D-i284aP-N287P-S322T-N388M-E421V-C430N-L432F-L434W-S436N-C437F-Y438L-H461T-G462R-i462aA-A463T (protein)
chain: MFLKSLREQINLLKRQGDLRIINRPVDSYLEAAAIIRRSTETKAPVPLMTNIKGYPGCSIVGGLAALSSNPEYPLSRVAMSLGLSTTASAQSIVQYLIDGLKKTPYLPVEIDSNSAPCKQNILRGEDASLAHFPIPQVHQHDGNRYVNTWGVFIVESPDGQWCNWSIQRVQYLNDRQMIALVFPSQHISDIWEEWVKIGKPMPYALVQGCEPIVPYIAGLPLLERNVNEAEYIGALYGKGIEVVKCETHDLRVPASSEVVIEGYFAITREGIEGPFGEFAGYTDNEPSLQPILSITAISWQDDPIWPVVAEGKPVDEYHTCTGIGDAAAIQNVLLTANLPVSFVWVPLYSACHLMIVSINRHWRQTHPDLTSEQLTKKVGDVIHQTRMSIKLPKIVVLDDDVDPADTESLLWALATRIHPVRKRYFYESNIFPWLNFLSEEERHNRKGKRVIIDALLPENTRTISSFDYAYPDDIKQRVLMHWETDFSHD
B4: V272R-I283T-P284D-i284aP-N287P-S322T-N388M-E421V-C430N-L432F-L434W-S436N-E441H-G448E-H461T-G462R-i462aA-A463T (protein)
chain: B3 chain with I272R, F437C, L438Y, E441H, G448E
B5: V272R-I283T-P284D-i284aP-N287P-S322T-N388M-E421V-E428T-C430N-L432F-L434W-S436N-G448E-H461T-G462R-i462aA-A463T (protein)
chain: B3 chain with I272R, E428T, F437C, L438Y, G448E
B6: V272R-I283T-P284D-i284aP-N287P-S322T-N388M-E421V-E428T-C430N-L432F-L434W-S436N-K447I-G448E-H461T-G462R-i462aA-A463T (protein)
chain: B3 chain with I272R, E428T, F437C, L438Y, K447I, G448E
B7: G17S-V272R-I283T-P284D-i284aP-N287P-S322T-N388M-E421K-C430N-L432F-L434W-S436N-G448E-H461T-G462R-i462aA-A463T (protein)
chain: B3 chain with G17S, I272R, V421K, F437C, L438Y, G448E
B8: S39G-V272R-I283T-P284D-i284aP-N287P-S322T-N388M-E421V-F426L-E428T-C430N-L432F-L434W-S436N-G448E-H461T-G462R-i462aA-A463T (protein)
chain: B3 chain with S39G, I272R, F426L, E428T, F437C, L438Y, G448E
B9: V272R-I283T-P284D-i284aP-N287P-S322T-N388M-I418V-E421V-C430N-L432F-L434W-S436N-G448E-H461T-G462R-i462aA-A463T (protein)
chain: B3 chain with I272R, I418V, F437C, L438Y, G448E

Tested on: 3-methylcrotonic acid
Type: biochemical, Yersinia frederiksenii
Parameters: key: “+” representing a low increase in activity; “++++” representing a high increase in activity

Row | Molecule | Activity relative to WT
1 | B1 | ++++
2 | B2 | +
3 | B3 | ++++
4 | B4 | ++++
5 | B5 | ++++
6 | B6 | ++++
7 | B7 | ++++
8 | B8 | ++++
9 | B9 | ++++
